Test results from US20250320281A1.

How the values were obtained:
Test in all cases: cell-based or functional assay
[1] = target: HIV-1 Env of isolate MGRM-F1-015 (HIV-1)
[2] = target: HIV-1 Env of isolate MGRM-D-012 (pseudovirus) (HIV-1)
[3] = target: HIV-1 Env of isolate JR-CSF (subtype B pseudovirus) (HIV-1) (UniProt P20871)
[4] = target: HIV-1 92BR020 Env (pseudovirus) (HIV-1)
[5] = target: HIV-1 Env of isolate MGRM-Chronic-B-024 (subtype B pseudovirus) (HIV-1)
[6] = target: HIV-1 Env of isolate 92UG001 (pseudovirus) (HIV-1)
[7] = target: HIV-1 Env of isolate 6535.3 (subtype B pseudovirus) (HIV-1)
[8] = target: HIV-1 Env of isolate MGRM-Chronic-B-020 (subtype B pseudovirus) (HIV-1)
[9] = target: HIV-1 Env of isolate 98IN022 (HIV-1)
[10] = target: HIV-1 Env of isolate JR-CSF (pseudovirus) (HIV-1) (UniProt P20871)
[11] = target: HIV-1 Env of pseudovirus isolate MGRM-G-024 (HIV-1)
[12] = target: HIV-1 Env of isolate MGRM-D-005 (pseudovirus) (HIV-1)
[13] = target: HIV-1 Env of isolate MGRM-D-001 (clade D), on pseudovirus (HIV-1)
[14] = target: HIV-1 Env of isolate THR0.18 (subtype B pseudovirus) (HIV-1)
[15] = target: HIV-1 Env of isolate MGRM-F1-020 (HIV-1)
[16] = target: HIV-1 Env of isolate MGRM-A-008 (subtype A) (HIV-1)
[17] = target: HIV-1 envelope glycoprotein (Env) of isolate MGRM-C-006 (HIV-1)
[18] = target: HIV-1 Env of isolate MG RM-D-011 (HIV-1)
[19] = target: HIV-1 Env of isolate MGRM-A-007 (subtype A) (HIV-1)
[20] = target: HIV-1 Env of isolate MGRM-G-013 (HIV-1)
[21] = target: HIV-1 JRCSF envelope glycoprotein (Env) on pseudovirus (HIV-1) (UniProt P20871)

5345_I01 (PGT-137) (antibody), sequence (VH): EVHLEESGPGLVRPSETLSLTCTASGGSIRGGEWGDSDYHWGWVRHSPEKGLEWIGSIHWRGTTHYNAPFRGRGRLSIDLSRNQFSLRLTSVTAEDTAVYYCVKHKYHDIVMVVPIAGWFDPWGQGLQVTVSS
5345_I01 (PGT-137) (antibody), sequence (VL): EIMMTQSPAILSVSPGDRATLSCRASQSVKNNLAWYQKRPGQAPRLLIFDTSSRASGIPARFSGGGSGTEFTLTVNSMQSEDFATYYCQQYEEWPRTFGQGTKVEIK
4993_K13 (PGT-141) (antibody), sequence (VH): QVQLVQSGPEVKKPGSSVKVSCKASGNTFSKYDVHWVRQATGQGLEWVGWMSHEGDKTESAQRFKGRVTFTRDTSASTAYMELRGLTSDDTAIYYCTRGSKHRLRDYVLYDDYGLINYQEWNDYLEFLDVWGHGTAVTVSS
4993_K13 (PGT-141) (antibody), sequence (VL): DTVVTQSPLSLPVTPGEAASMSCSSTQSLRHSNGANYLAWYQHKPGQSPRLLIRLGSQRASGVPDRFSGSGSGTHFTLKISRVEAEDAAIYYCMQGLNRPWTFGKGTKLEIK

| Substance | IC50 (µg/mL), pseudovirus neutralization [1] [µg/mL] | IC50, pseudovirus neutralization [2] [mg/L] | IC50 (µg/mL), pseudovirus neutralization [3] [µg/mL] | neutralization IC50 (pseudovirus) [4] [mg/L] | IC50 (µg/mL), pseudovirus neutralization [5] [µg/mL] | IC50, pseudovirus neutralization [6] [mg/L] | IC50 (µg/mL), pseudovirus neutralization [7] [µg/mL] | IC50 (µg/mL), pseudovirus neutralization [8] [µg/mL] | neutralization IC50 [9] [mg/L] | Polyclonal Transfectant Neutralization Index [10] | Primary Neutralization Index (B cell culture supernatant) [10] | IC50 (µg/mL), pseudovirus neutralization [11] [µg/mL] | IC50, pseudovirus neutralization [12] [mg/L] | IC50, pseudovirus neutralization [13] [mg/L] | IC50 (µg/mL), pseudovirus neutralization [14] [µg/mL] | IC50 (µg/mL), pseudovirus neutralization [15] [µg/mL] | IC50 (µg/mL), pseudovirus neutralization [16] [µg/mL] | IC50 (µg/mL), pseudovirus neutralization [17] [µg/mL] | IC50 (µg/mL), pseudovirus neutralization [18] [µg/mL] | IC50 (µg/mL), pseudovirus neutralization [19] [µg/mL] | further results |
| --- | --- | --- | --- | --- | --- | --- | --- | --- | --- | --- | --- | --- | --- | --- | --- | --- | --- | --- | --- | --- | --- |
| 5123_A06 (PGT-125) (antibody) | > 50 | > 50 | 0.004 | 0.0214 | > 50 | > 50 | 0.01 | 0.087 | 22.1 | 119 | 1730 | > 50 | > 50 | 2.31 | > 50 | > 50 | – | – | – | – | – |
| 5147_N06 (PGT-130) (antibody) | – | – | – | 1.12 | – | – | – | – | – | 1.24 | 19.3 | 5.84 | – | > 10 | – | – | > 50 | 0.095 | 0.019 | > 50 | Neutralization by PGT-130, IC50 [4]: 1.12 mg/L; Neutralization by PGT-130, IC80 [4]: > 10 mg/L; Neutralization by PGT-130, IC90 [4]: > 10 mg/L; Neutralization by PGT-130, IC95 [4]: > 10 mg/L |
| 5136_H01 (PGT-131) (antibody) | – | – | – | – | – | – | – | – | – | – | 6.2 | 10.7 | – | – | – | – | > 50 | 0.611 | 0.756 | > 50 | – |
| 4993_K13 (PGT-141) (antibody) | – | – | – | > 10 | – | – | – | – | – | – | – | – | – | – | – | – | – | – | – | – | IC50 (µg/mL), pseudovirus neutralization [20]: > 50 µg/mL |
| 4838_L06 (PGT-121) (antibody) | 28.4 | > 50 | 0.027 | – | 0.195 | > 50 | 0.005 | 0.004 | 0.007 | – | – | – | > 50 | – | > 50 | 0.167 | – | – | – | – | – |
| 5141_B17 (PGT-126) (antibody) | > 50 | > 50 | 0.008 | 0.0163 | > 50 | > 50 | 0.022 | 0.021 | 0.279 | 102 | 1410 | > 50 | 0.792 | 0.0639 | > 50 | > 50 | – | – | – | – | IC80 (pseudovirus neutralization) [21]: 0.018 mg/L; IC90 (pseudovirus neutralization) [21]: 0.0339 mg/L; IC95 (pseudovirus neutralization) [21]: 0.0608 mg/L |
| 5145_B14 (PGT-127) (antibody) | > 50 | > 50 | 0.018 | – | > 50 | > 50 | 0.02 | 0.05 | 19.2 | 1.61 | 31.1 | > 50 | 6.02 | – | > 50 | > 50 | – | – | – | – | – |
| 5343_B08 (PGT-135) (antibody) | – | – | – | 0.104 | – | – | – | – | – | – | 1.8 | 0.062 | – | > 10 | – | – | > 50 | > 50 | 23.5 | > 50 | – |
| 5345_I01 (PGT-137) (antibody) | – | – | – | – | – | – | – | – | – | – | 1.1 | 0.051 | – | – | – | – | > 50 | > 50 | 6.3 | > 50 | – |
